± gives the standard deviation.
Assay: protein stability index of a GFP-peptide fusion (GPS, HEK-293T) (PSI 1-6); higher = more stable
[1] = treatment: DMSO, c terminus: a fixed tail appended
[2] = treatment: MLN4924 1 uM, 8 h, c terminus: a fixed tail appended
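Also: 24-mer peptide tiles fused after GFP, lentivirally expressed, FACS-sorted into six equal bins by GFP/DsRed ratio, decoded by Illumina sequencing, PSI is the read-weighted mean bin number.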

## LVVDYIDEGRLVLEFSLLSYAFGK [SOAT1]
[1]
  protein stability index: 3.29 ± 0.8
[2]
  protein stability index: 3.17 ± 0.48

## PFGFQTVTSDVNKLSSFYSLKLIK [SERPINB5]
[1]
  protein stability index: 2.15 ± 0.17
[2]
  protein stability index: 2.31 ± 0.41

## MGWFNNEVGSMKIQSGAWVCYQYP [CRYBA1]
[1]
  protein stability index: 2.74 ± 0.73
[2]
  protein stability index: 2.61 ± 0.29

## KRTAQAIEPYITNFFNQVLMLGKT [PDS5B]
[1]
  protein stability index: 1.95 ± 0.24
[2]
  protein stability index: 2.29 ± 0.085

## CTQVTQDGDIPNIPAEENASTSTP [FAM189A2]
[1]
  protein stability index: 5.65 ± 0.2
[2]
  protein stability index: 5.5 ± 0.33

## CESLTYGLPFILRPTSCWQLDWDE [M1AP]
[1]
  protein stability index: 2.25 ± 0.15
[2]
  protein stability index: 2.04 ± 0.3

## CVLYACFILGRLCVPVFANMSREP [SOAT2]
[1]
  protein stability index: 3 ± 0.36
[2]
  protein stability index: 3.31 ± 0.21

## PSVPPTIKEEENSEEELAAATTSK [MYBL2]
[1]
  protein stability index: 5.52 ± 0.53
[2]
  protein stability index: 5.56 ± 0.4

## DAAIHGFRETEKSRWSEASRAILQ [ALKBH7]
[1]
  protein stability index: 3.8 ± 0.51
[2]
  protein stability index: 3.83 ± 0.66

## EGDLPQMEVGSGSRELSLRPSRSG [EID1]
[1]
  protein stability index: 5.07 ± 0.31
[2]
  protein stability index: 5.36 ± 0.35

## TLGREVMSPLQAMSSYTVAGRNVL [NLN]
[1]
  protein stability index: 3.1 ± 0.2
[2]
  protein stability index: 3.01 ± 0.34

## VSCFLTFNIFDWLGRSLTAVFMWP [SLC29A1]
[1]
  protein stability index: 3.03 ± 0.07
[2]
  protein stability index: 3.502 ± 0.017

## GGVGGSSRARSASSPRGMVRVCDL [ANKRD17]
[1]
  protein stability index: 3.97 ± 0.28
[2]
  protein stability index: 3.97 ± 0.36

## RTSSGTSREKTACAINKVGVSFST [FAM98B]
[1]
  protein stability index: 3.29 ± 0.29
[2]
  protein stability index: 3.87 ± 0.46

## FENMSNDDAVRVLREIVHKPGPIT [DVL3]
[1]
  protein stability index: 3.65 ± 0.15
[2]
  protein stability index: 3.7 ± 0.15

## GPGDSQGRKRRQTSMTDFYHSKRR [CDKN1A]
[1]
  protein stability index: 3.62 ± 0.42
[2]
  protein stability index: 4.78 ± 0.19

## RANRGILQQERQRLGQRQPPPSEP [DNAJC4]
[1]
  protein stability index: 4.79 ± 0.22
[2]
  protein stability index: 4.79 ± 0.087

## SENMWNTGSTYNLSSGMAVAGMPT [CARM1]
[1]
  protein stability index: 3.48 ± 0.15
[2]
  protein stability index: 3.63 ± 0.1

## TLCDVTLRVEQKDFPAHRIVLAAC [KLHL12]
[1]
  protein stability index: 2.21 ± 0.52
[2]
  protein stability index: 1.83 ± 0.53

## FASDGDSGTCSPLRHSFQKQQREK [ADD1]
[1]
  protein stability index: 3.98 ± 0.41
[2]
  protein stability index: 4.17 ± 0.39

## RTLKSYLGLTNQSRRYNRKEPAEF [ZNF649]
[1]
  protein stability index: 3.09 ± 0.31
[2]
  protein stability index: 3.05 ± 0.48

## FCGATIAGLSLLSPSVMRLVHTQE [ALKBH7]
[1]
  protein stability index: 3.06 ± 0.44
[2]
  protein stability index: 2.71 ± 0.96

## PLPPPPPAFKSMEVANFYYEADCL [CEBPB]
[1]
  protein stability index: 3.9 ± 0.31
[2]
  protein stability index: 3.62 ± 0.33

## WNNVGLLGGRALMNCLPSNRTLWR [LRRC45]
[1]
  protein stability index: 2.23 ± 0.31
[2]
  protein stability index: 2.24 ± 0.45

## MPGFPDNIRPSSSGGYWVGMSTIR [APMAP]
[1]
  protein stability index: 2.87 ± 0.38
[2]
  protein stability index: 2.9 ± 0.42

## EDTDPSTLSFNMSDKYPIQDTELP [EDARADD]
[1]
  protein stability index: 5.11 ± 0.12
[2]
  protein stability index: 4.89 ± 0.089

## VSAATQLRHFFLVEDLVDSLKLAL [RTN2]
[1]
  protein stability index: 2.56 ± 0.72
[2]
  protein stability index: 2.49 ± 0.47

## PSGFLQISDALIRRVHLTEDQWGK [TRIM9]
[1]
  protein stability index: 2.84 ± 0.25
[2]
  protein stability index: 2.59 ± 0.24

## IPVFRLARRRKKILFYCHFPDLLL [ALG2]
[1]
  protein stability index: 2.88 ± 0.57
[2]
  protein stability index: 2.44 ± 0.29

## GPKESLPVIAAPSMWTRPQIKDFK [ACBD3]
[1]
  protein stability index: 3.8 ± 0.29
[2]
  protein stability index: 3.79 ± 0.16

## LHTDVGSVRMRRAEKSVAPSNTGS [NEK8]
[1]
  protein stability index: 4.58 ± 0.22
[2]
  protein stability index: 4.73 ± 0.14

## MLTRRVLQLETVLEGVVSQIDAVG [PKD2L1]
[1]
  protein stability index: 2.29 ± 0.49
[2]
  protein stability index: 2.46 ± 0.51

## MGQTALAGGSSSTPTPQALYPDLS [SPSB2]
[1]
  protein stability index: 4.46 ± 0.37
[2]
  protein stability index: 4.66 ± 0.37

## AGLAPPSLFARAMQVLVTAISPGR [ANKRD9]
[1]
  protein stability index: 2.29 ± 0.1
[2]
  protein stability index: 2.29 ± 0.18

## EPSLKATMGLAGRARVKEKFSPEA [ALG2]
[1]
  protein stability index: 4.6 ± 0.34
[2]
  protein stability index: 4.94 ± 0.19

## YDPTYKDKEGPSPKVEYVWRNIIL [SCD]
[1]
  protein stability index: 2.11 ± 0.47
[2]
  protein stability index: 2.37 ± 0.23

## NESMKAYHNSPAYLAYINAKSRAE [SMARCE1]
[1]
  protein stability index: 4.42 ± 0.27
[2]
  protein stability index: 4.26 ± 0.49

## PEGSLSQTMAGSSPNTPQPVPEQS [FAM104A]
[1]
  protein stability index: 5.47 ± 0.14
[2]
  protein stability index: 5.45 ± 0.12

## DSSTSPKGKQPTSAENSVAKKEDK [NANOGP8]
[1]
  protein stability index: 5.57 ± 0.36
[2]
  protein stability index: 5.58 ± 0.19

## CNDGRIVIWDFLTRGIAKIISAHI [RBBP5]
[1]
  protein stability index: 3.03 ± 0.42
[2]
  protein stability index: 2.66 ± 0.41

## QPPPQSSEGLVGALMHVMQKRSRA [WAS]
[1]
  protein stability index: 4.21 ± 0.41
[2]
  protein stability index: 4.24 ± 0.12

## VEVMDETNCQKVLNMWCCCFFKRR [CSNK1G3]
[1]
  protein stability index: 3.21 ± 0.38
[2]
  protein stability index: 3.15 ± 0.39

## KKVSKAAILARIKRTGDGNYKSG [SCD]
treatment: DMSO, c terminus: native
  protein stability index: 2.88 ± 1.2
treatment: MLN4924 1 uM, 8 h, c terminus: native
  protein stability index: 3.28 ± 0.21

## FRLVEKSCPEGDASECPQATNAKD [PPEF2]
[1]
  protein stability index: 5.11 ± 0.21
[2]
  protein stability index: 5.41 ± 0.28

## SLAGALGVKFVGLFIILQVGLNTI [POMT2]
[1]
  protein stability index: 3.27 ± 0.16
[2]
  protein stability index: 3.16 ± 1.2
